# Measured values published in patent EP4527855A2.
# Legend:
# [1] = target: 28mer peptide of the CXCR5 antigen; assay: Antigen ELISA, relative EC50 against the reference; 100 mg/mL formulation, 1 month at +5°C
# [2] = target: 28mer peptide of the CXCR5 antigen; assay: Antigen ELISA, relative EC50 against the reference; 100 mg/mL formulation, 1 month at -20°C
# [3] = target: 28mer peptide of the CXCR5 antigen; assay: Antigen ELISA, relative EC50 against the reference; 100 mg/mL formulation, 3 months at +5°C
# [4] = target: 28mer peptide of the CXCR5 antigen; assay: Antigen ELISA, relative EC50 against the reference; 100 mg/mL formulation, 6 months at +5°C
# [5] = target: 28mer peptide of the CXCR5 antigen; assay: Antigen ELISA, relative EC50 against the reference; 100 mg/mL formulation, 9 months at +5°C
# [6] = target: 28mer peptide of the CXCR5 antigen; assay: Antigen ELISA, relative EC50 against the reference; 100 mg/mL formulation, 3 months at -20°C
# [7] = target: 28mer peptide of the CXCR5 antigen; assay: Antigen ELISA, relative EC50 against the reference; 100 mg/mL formulation, 6 months at -20°C
# [8] = target: 28mer peptide of the CXCR5 antigen; assay: Antigen ELISA, relative EC50 against the reference; 100 mg/mL formulation, 9 months at -20°C
# [9] = target: 28mer peptide of the CXCR5 antigen; assay: Antigen ELISA, relative EC50 against the reference; 100 mg/mL formulation, 12 months at +5°C
# [10] = target: 28mer peptide of the CXCR5 antigen; assay: Antigen ELISA, relative EC50 against the reference; 100 mg/mL formulation, 15 months at +5°C
# [11] = target: 28mer peptide of the CXCR5 antigen; assay: Antigen ELISA, relative EC50 against the reference; 100 mg/mL formulation, 18 months at +5°C
# [12] = target: 28mer peptide of the CXCR5 antigen; assay: Antigen ELISA, relative EC50 against the reference; 100 mg/mL formulation, 12 months at -20°C
# [13] = target: 28mer peptide of the CXCR5 antigen; assay: Antigen ELISA, relative EC50 against the reference; 100 mg/mL formulation, 18 months at -20°C
# [14] = target: 28mer peptide of the CXCR5 antigen; assay: Antigen ELISA, relative EC50 against the reference; 100 mg/mL formulation, +5°C study, initial
# [15] = target: 28mer peptide of the CXCR5 antigen; assay: Antigen ELISA, relative EC50 against the reference; 100 mg/mL formulation, -20°C study, initial
# [16] = target: 28mer peptide of the CXCR5 antigen; assay: Antigen ELISA, relative EC50 against the reference; 100 mg/mL formulation, 1 month at +25°C/60% RH
# [17] = target: 28mer peptide of the CXCR5 antigen; assay: Antigen ELISA, relative EC50 against the reference; 100 mg/mL formulation, 3 months at +25°C/60% RH
# [18] = target: 28mer peptide of the CXCR5 antigen; assay: Antigen ELISA, relative EC50 against the reference; 100 mg/mL formulation, 6 months at +25°C/60% RH
# [19] = target: 28mer peptide of the CXCR5 antigen; assay: Antigen ELISA, relative EC50 against the reference; 100 mg/mL formulation, +25°C/60% RH study, initial
# [20] = target: 28mer peptide of the CXCR5 antigen; assay: Antigen-ELISA on the 28mer CXCR5 peptide, relative EC50 against the standard; DS in PBS, 1 month at 5°C
# [21] = target: 28mer peptide of the CXCR5 antigen; assay: Antigen-ELISA on the 28mer CXCR5 peptide, relative EC50 against the standard; DS in PBS, 1 month at 25°C
# [22] = target: 28mer peptide of the CXCR5 antigen; assay: Antigen-ELISA on the 28mer CXCR5 peptide, relative EC50 against the standard; DS in PBS, 3 months at 5°C
# [23] = target: 28mer peptide of the CXCR5 antigen; assay: Antigen-ELISA on the 28mer CXCR5 peptide, relative EC50 against the standard; DS in PBS, 1 month at -20°C
# [24] = target: 28mer peptide of the CXCR5 antigen; assay: Antigen-ELISA on the 28mer CXCR5 peptide, relative EC50 against the standard; DS in PBS, 3 months at 25°C
# [25] = target: 28mer peptide of the CXCR5 antigen; assay: Antigen-ELISA on the 28mer CXCR5 peptide, relative EC50 against the standard; DS in PBS, 3 months at -20°C
# [26] = target: 28mer peptide of the CXCR5 antigen; assay: Antigen-ELISA on the 28mer CXCR5 peptide, relative EC50 against the current antibody standard; DS in PBS, release
binder,measurement,setting,value
"Lead CXCR5 Antibody (humanized IgG4 anti-CXCR5 antibody comprising a heavy chain of SEQ ID NO: 25 and a light chain of SEQ ID NO: 26) (antibody, V domains shown) VH: QVQLKESGPGLVAPSESLSITCTVSGFSLIDYGVNWIRQPPGKGLEWLGVIWGDGTTYYNPSLKSRLSISKDNSKSQVFLKVTSLTTDDTAMYYCARIVYWGQGTLVTVSA VL: DIVMTQAAPSVAVTPGASVSISCRSSKSLLHSSGKTYLYWFLQRPGQSPQLLIYRLSSLASGVPDRFSGSGSGTAFTLRISRVEAEDVGVYYCMQHLEYPYTFGGGTKLEIKR","Potency (Antigen ELISA), EC50 value in comparison to reference",[1],105%
same,"Potency (Antigen ELISA), EC50 value in comparison to reference",[2],107%
same,"Potency (Antigen ELISA), EC50 value in comparison to reference",[3],95%
same,"Potency (Antigen ELISA), EC50 value in comparison to reference",[4],97%
same,"Potency (Antigen ELISA), EC50 value in comparison to reference",[5],92%
same,"Potency (Antigen ELISA), EC50 value in comparison to reference",[6],84%
same,"Potency (Antigen ELISA), EC50 value in comparison to reference",[7],96%
same,"Potency (Antigen ELISA), EC50 value in comparison to reference",[8],101%
same,"Potency (Antigen ELISA), EC50 value in comparison to reference",[9],93%
same,"Potency (Antigen ELISA), EC50 value in comparison to reference",[10],114%
same,"Potency (Antigen ELISA), EC50 value in comparison to reference",[11],119%
same,"Potency (Antigen ELISA), EC50 value in comparison to reference",[12],96%
same,"Potency (Antigen ELISA), EC50 value in comparison to reference",[13],127%
same,"Potency (Antigen ELISA), EC50 value in comparison to reference",[14],75%
same,"Potency (Antigen ELISA), EC50 value in comparison to reference",[15],75%
same,"Potency (Antigen ELISA), EC50 value in comparison to reference",[16],121%
same,"Potency (Antigen ELISA), EC50 value in comparison to reference",[17],96%
same,"Potency (Antigen ELISA), EC50 value in comparison to reference",[18],104%
same,"Potency (Antigen ELISA), EC50 value in comparison to reference",[19],75%
same,Ag-ELISA EC50 % (relative to standard),[20],83%
same,Ag-ELISA EC50 % (relative to standard),[21],106%
same,Ag-ELISA EC50 % (relative to standard),[22],112%
same,Ag-ELISA EC50 % (relative to standard),[23],132%
same,Ag-ELISA EC50 % (relative to standard),[24],108%
same,Ag-ELISA EC50 % (relative to standard),[25],93%
same,Ag-ELISA EC50 % (relative to standard),[26],100%
